± gives the uncertainty stated by the source.
Experiment: protein stability index of a GFP-peptide fusion (yeast GPS) (PSI 1-4); higher = more stable; sorted into four equal gates, so the index is relative within each strain
Outline: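 Tiled yeast protein peptides of 17 residues were each joined downstream of GFP, on plasmids that also express Cherry. The pooled library was maintained in yeast, and mid-log cultures in leucine-free medium were sorted into four equal gates on the GFP/Cherry ratio. Plasmids from every gate were amplified by PCR and sequenced on Illumina, with barcodes linking reads to strains. The protein stability index of a peptide is its gate-number-weighted read frequency summed over the gates.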

Sequence	protein stability index (doa10∆)	protein stability index (pdr5∆)	protein stability index (san1∆)	protein stability index (ubr1∆)
LARQVKLLLLNTSAIQE [YIL149C/MLP2]	2.19 ± 0.085	1.75 ± 0.073	1.56 ± 0.12	1.65 ± 0.038
NGAGGLMYATDWQMMTS [CSL4]	3.23 ± 0.15	2.93 ± 0.12	–	2.99 ± 0.09
DGLLEYLEDIIGTANYK [SMC4]	2.38 ± 0.072	2.53 ± 0.055	2.6 ± 0.078	2.36 ± 0.054
APEKDIWVGEWKEVLAH [RPO31]	2.47 ± 0.1	2.17 ± 0.082	2.16 ± 0.12	2.51 ± 0.062
KEIDPSQTTQLAGMDVE [FAS2]	3.14 ± 0.086	3.28 ± 0.11	3.15 ± 0.077	3.6 ± 0.069
MGIVQDTLCGIRKLTLR [RPO21]	2.89 ± 0.068	1.74 ± 0.053	1.87 ± 0.068	1.64 ± 0.053
QLVTREAQIKDWVENEL [FAS2]	3.44 ± 0.1	3.19 ± 0.1	3.39 ± 0.065	3.11 ± 0.064
PLEKITDAYLDQYLWYE [PRP8]	3.19 ± 0.13	3.36 ± 0.18	3.03 ± 0.18	3.18 ± 0.12
WLVVPTIYNLQHHVTDA [YML031W/NDC1]	1.38 ± 0.03	1.62 ± 0.033	1.46 ± 0.05	1.37 ± 0.027
EQTEGEPKKKRGFLGLF [SRP68]	3.1 ± 0.096	3.26 ± 0.11	2.9 ± 0.064	2.76 ± 0.066
NFNKFFKIWHGEINKIC [PCI8]	1.24 ± 0.049	1.13 ± 0.046	1.15 ± 0.079	1.14 ± 0.059
MSKIQVAHSSRLANLID [SMB1]	1.47 ± 0.096	1.81 ± 0.15	1.09 ± 0.14	1.2 ± 0.15
AKNRILASKIKQYERLR [RRI1]	2.48 ± 0.052	2.4 ± 0.049	2.37 ± 0.051	2.58 ± 0.036
IRPLSKPMTAYARADTH [RRP6]	2.74 ± 0.08	2.9 ± 0.083	2.8 ± 0.065	2.89 ± 0.14
STKFDYPPMPFDGFLFG [FAS1]	2.56 ± 0.046	2.63 ± 0.051	2.68 ± 0.063	2.68 ± 0.037
PGGAASKSVPTPSLPIA [SNF5]	2.9 ± 0.062	3.07 ± 0.056	2.97 ± 0.036	3.06 ± 0.041
LISKPAKKNNFIEDLAP [UBP6]	2.54 ± 0.084	2.73 ± 0.066	2.73 ± 0.069	2.7 ± 0.062
WAGKRLWDQDIAIAGTG [COR1]	3.25 ± 0.1	3.11 ± 0.12	2.56 ± 0.1	2.66 ± 0.072
TIKVVKRSMDAEQLGHA [RPP1]	3.18 ± 0.067	3.28 ± 0.07	3.41 ± 0.042	3.38 ± 0.077
TIGGGLFGNKPTTTTGG [YGR119C/NUP57]	3 ± 0.094	3.25 ± 0.21	3.56 ± 0.15	–
LEDIYTSAHEAIRADPA [RPL5]	3.04 ± 0.066	2.98 ± 0.082	3.13 ± 0.072	3.19 ± 0.051
PSEFHCLQDALDAIDDF [SSN2]	3.14 ± 0.1	3.16 ± 0.067	3.12 ± 0.05	3.09 ± 0.097
ENEISSLLAMHKHNIMK [CDC53]	2.92 ± 0.079	2.99 ± 0.059	3.02 ± 0.052	3.07 ± 0.039
NVFGTLQRHSGISSTLV [YLR018C/POM34]	2.03 ± 0.09	2.01 ± 0.096	1.77 ± 0.23	3.25 ± 0.27
PRINNISAEDRADTDLA [SNF2]	1.94 ± 0.15	2.51 ± 0.14	3.02 ± 0.084	2.86 ± 0.086

Sequence	protein stability index (doa10∆)	protein stability index (pdr5∆)	protein stability index (san1∆)	protein stability index (ubr1∆)
TILYLNVFHGLCAGANN [IRR1]	1.3 ± 0.071	1.64 ± 0.083	1.39 ± 0.087	1.34 ± 0.076
VDIKGEDLHEKNDSAEV [NUT1]	3.54 ± 0.12	3.37 ± 0.2	2.93 ± 0.19	3.55 ± 0.12
KELELERKEREDFQKRQ [SWI1]	3.25 ± 0.076	3.22 ± 0.078	3.32 ± 0.068	3.31 ± 0.045
ASSNFPFLNETKPGVYY [RPC82]	3.09 ± 0.12	2.43 ± 0.09	2.73 ± 0.091	2.99 ± 0.072
SKQDVEALIEFIYDTEK [FAS2]	3.23 ± 0.1	3.17 ± 0.083	3.04 ± 0.13	3.08 ± 0.073
MGGIREKKAEYFAKLRE [RPP0]	3.48 ± 0.081	3.37 ± 0.082	3.13 ± 0.061	3.55 ± 0.095
LFQLLNALTVGDFDKFD [RPN9]	3.1 ± 0.29	2.36 ± 0.26	–	1.8 ± 0.28
DVKKPFSFGTSQPNNTP [YLR335W/NUP2]	2.61 ± 0.096	2.34 ± 0.083	2.5 ± 0.12	2.15 ± 0.064
DYVNKTNSHLPAGKQVE [FAS1]	3.16 ± 0.098	3.57 ± 0.24	3.08 ± 0.13	3.08 ± 0.11
DRVQQDSEDEDSMKDTT [YML031W/NDC1]	3.25 ± 0.14	3.22 ± 0.16	3.26 ± 0.091	3.25 ± 0.07
IHGVLKNVDREVVSEAI [FAS2]	3.19 ± 0.1	3.4 ± 0.3	3.3 ± 0.14	–
HIIQAKADAQREKALNE [RPL19A]	3.29 ± 0.19	3.38 ± 0.094	3.33 ± 0.086	–
ADLPGSYNLEYIESKFC [YMR129W/POM152]	3.16 ± 0.13	3.38 ± 0.19	3.13 ± 0.14	3.24 ± 0.093
VANYSAMANAPGNNIPY [GAL11]	2.88 ± 0.16	3.25 ± 0.18	2.7 ± 0.17	2.76 ± 0.16
ESSLTISLYFNDILDEL [ECM29]	1.89 ± 0.06	2.25 ± 0.051	2.38 ± 0.07	2.4 ± 0.061
GIDLAYNMYDAYGNWFN [PRP8]	2.94 ± 0.049	3.08 ± 0.04	3.05 ± 0.058	3 ± 0.045
FGAPNNPNSTAITADLG [YGL172W/NUP49]	3.04 ± 0.094	3 ± 0.078	3.03 ± 0.058	2.84 ± 0.087
GSSRIIASDGSECIVSI [RRP42]	3.33 ± 0.14	3.27 ± 0.075	3.11 ± 0.061	3.12 ± 0.15
KDEPVQNDILQESFINT [FAS2]	2.94 ± 0.089	3.14 ± 0.12	3.02 ± 0.052	3.21 ± 0.082
LVNRKPIPFEFQAVIQK [SNF2]	2.65 ± 0.079	2.73 ± 0.057	2.71 ± 0.048	2.83 ± 0.038
PLYVMDEIDAALDFRNV [SMC4]	2.5 ± 0.059	2.33 ± 0.066	3.26 ± 0.051	2.51 ± 0.048
NDTLPDEISPELLSKYK [SNU114]	2.9 ± 0.067	2.8 ± 0.072	3.03 ± 0.064	2.86 ± 0.075
QPKGVILYGPPGTGKTL [RPT6]	3.47 ± 0.15	2.91 ± 0.21	3.3 ± 0.15	2.95 ± 0.21
KIKQYERLRFYKDTFTL [RRI1]	2.78 ± 0.056	2.54 ± 0.055	2.4 ± 0.049	2.81 ± 0.039
FPKIDSLAQNDCNSALD [RPN5]	2.52 ± 0.062	2.64 ± 0.049	3.03 ± 0.05	2.93 ± 0.045

— the supplement of paper PMC9732359
